According to paper PMC6328183 (2019):

Target: FuBc protein (recombinant protein of the fusion loop and Bc loop of domain II of dengue envelope protein with … (DENV-2 (of the template structure PDB …, UniProt P12823)))
Assay: SPR

B1: 3IXY scFv antibody (VH and VL of the anti-fusion loop dengue E53 Fab, PDB 3IXY, joined by a (G4S)3 linker) (scFv, V domains shown)
VH: EVKLVESGGGLVLPGGSLRLSCATSGFTFTDYYMTWVRQPPGKALEWLGFIGNKANDYTTEYSASVKGRFTISRDDSQSILYLQMSTLRAEDRATYYCATVYGNYPYFDVWGAGTTVAVSS
VL: QIVLTQSPAIMSASPGEKVTMTCSASSSVSYMHWYQQKSGTSPKIWIYESSKLASGVPVRFSGSGSGTSYSLTISSMEAEDVATYYCQQWSSHPHPLTFGAGTKLELK
For B1, the koff was 0.0077 s⁻¹.
